From the supplement of paper PMC6757056
± gives the standard deviation of the averaged measurements.

B1: library; a variant is named by its letters at N, in order (parent)
chain: GCUGUCACCGGUGUAUUACCCUAGUGGUCGACCGGUCUGAUGAGUCUNNNNNNAGACGAAACAGC

How the values were obtained:
hypoxanthine [1] = variants of: B1; test: normalized RNA/DNA level with ligand (relative to sTRSVctl = 100) (log10 (% of sTRSVctl)); ligand: hypoxanthine (xanthine aptamer); higher = less ribozyme self-cleavage, higher mRNA level; conditions: ligand concentration (+) RNA-Seq: 5 mM, HEK293T, reporter: mCherry (pCS4076), ligand present: yes
Procedure, shortened: (§1)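 HEK293T cells were transfected with library plasmids carrying ribozyme switches linked to an mCherry reporter, or an eGFP reporter in some ligand experiments, at 4 µg per well of a 6-well plate, with any ligand added 1 h beforehand. After 72 h, total RNA was extracted with EDTA, reverse-transcribed, amplified, barcoded and sequenced. RNA level was defined as RNA reads over DNA reads, normalized to a spiked-in non-cleaving sequence or to the top-ranked sequences. That value was multiplied by 100 and converted to log10, the top set was 25 sequences, and only sequences with ≥100 DNA reads were retained.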

hypoxanthine [2] = variants of: B1; test: normalized RNA/DNA level without ligand (relative to sTRSVctl = 100) (log10 (% of sTRSVctl)); ligand: hypoxanthine (xanthine aptamer); higher = less ribozyme self-cleavage, higher mRNA level; conditions: HEK293T, reporter: mCherry (pCS4076), ligand present: no
Procedure, shortened: as §1

CUUUUC was tested, and the “normalized RNA/DNA level with ligand (log10)” value (hypoxanthine [1]) was 1.95 ± 0.06 and the “normalized RNA/DNA level without ligand (log10)” value (hypoxanthine [2]) was 1.92 ± 0.077.

In the case of CUUUUU, the “normalized RNA/DNA level with ligand (log10)” value (hypoxanthine [1]) is reported as 1.95 ± 0.058 and the “normalized RNA/DNA level without ligand (log10)” value (hypoxanthine [2]) is reported as 1.806 ± 0.012.

For UUUUAG, the “normalized RNA/DNA level with ligand (log10)” value (hypoxanthine [1]) was 1.9 ± 0.03 and the “normalized RNA/DNA level without ligand (log10)” value (hypoxanthine [2]) was 1.76 ± 0.055.

UUUUAA was tested, and the “normalized RNA/DNA level with ligand (log10)” value (hypoxanthine [1]) was 1.931 ± 0.0049 and the “normalized RNA/DNA level without ligand (log10)” value (hypoxanthine [2]) was 1.85 ± 0.056.

UUUUAC was tested, and the “normalized RNA/DNA level with ligand (log10)” value (hypoxanthine [1]) was 1.93 ± 0.031 and the “normalized RNA/DNA level without ligand (log10)” value (hypoxanthine [2]) was 1.83 ± 0.031.

In the case of GUUGGC, the “normalized RNA/DNA level with ligand (log10)” value (hypoxanthine [1]) is reported as 1.9 ± 0.029 and the “normalized RNA/DNA level without ligand (log10)” value (hypoxanthine [2]) is reported as 1.51 ± 0.025.

With GUUGGU the “normalized RNA/DNA level with ligand (log10)” value (hypoxanthine [1]) was 1.9283 ± 0.00055 and the “normalized RNA/DNA level without ligand (log10)” value (hypoxanthine [2]) was 1.78 ± 0.021.

GUUUGU was tested, and the “normalized RNA/DNA level with ligand (log10)” value (hypoxanthine [1]) was 1.95 ± 0.03 and the “normalized RNA/DNA level without ligand (log10)” value (hypoxanthine [2]) was 1.885 ± 0.01.

For GUUUGA, the “normalized RNA/DNA level with ligand (log10)” value (hypoxanthine [1]) was 1.97 ± 0.0084 and the “normalized RNA/DNA level without ligand (log10)” value (hypoxanthine [2]) was 1.75 ± 0.032.

With GUUUGC the “normalized RNA/DNA level with ligand (log10)” value (hypoxanthine [1]) was 1.922 ± 0.016 and the “normalized RNA/DNA level without ligand (log10)” value (hypoxanthine [2]) was 1.61 ± 0.062.

For CUUGUG, the “normalized RNA/DNA level with ligand (log10)” value (hypoxanthine [1]) was 1.96 ± 0.056 and the “normalized RNA/DNA level without ligand (log10)” value (hypoxanthine [2]) was 1.883 ± 0.015.

CUUGUA was tested, and the “normalized RNA/DNA level with ligand (log10)” value (hypoxanthine [1]) was 1.94 ± 0.062 and the “normalized RNA/DNA level without ligand (log10)” value (hypoxanthine [2]) was 1.83 ± 0.045.

In the case of CUUGUC, the “normalized RNA/DNA level with ligand (log10)” value (hypoxanthine [1]) is reported as 2 ± 0.037 and the “normalized RNA/DNA level without ligand (log10)” value (hypoxanthine [2]) is reported as 1.98 ± 0.04.

For CUUGUU, the “normalized RNA/DNA level with ligand (log10)” value (hypoxanthine [1]) was 1.909 ± 0.0024 and the “normalized RNA/DNA level without ligand (log10)” value (hypoxanthine [2]) was 1.9 ± 0.022.

In the case of AUUUGG, the “normalized RNA/DNA level with ligand (log10)” value (hypoxanthine [1]) is reported as 1.81 ± 0.03 and the “normalized RNA/DNA level without ligand (log10)” value (hypoxanthine [2]) is reported as 1.39 ± 0.12.

UUUUCG was tested, and the “normalized RNA/DNA level with ligand (log10)” value (hypoxanthine [1]) was 1.923 ± 0.0085 and the “normalized RNA/DNA level without ligand (log10)” value (hypoxanthine [2]) was 1.79 ± 0.053.

In the case of UUUUCA, the “normalized RNA/DNA level with ligand (log10)” value (hypoxanthine [1]) is reported as 1.94 ± 0.056 and the “normalized RNA/DNA level without ligand (log10)” value (hypoxanthine [2]) is reported as 1.901 ± 0.012.

UUUUCU was tested, and the “normalized RNA/DNA level with ligand (log10)” value (hypoxanthine [1]) was 1.99 ± 0.052 and the “normalized RNA/DNA level without ligand (log10)” value (hypoxanthine [2]) was 1.9 ± 0.02.

In the case of CUUUGC, the “normalized RNA/DNA level with ligand (log10)” value (hypoxanthine [1]) is reported as 1.92 ± 0.026 and the “normalized RNA/DNA level without ligand (log10)” value (hypoxanthine [2]) is reported as 1.88 ± 0.06.

In the case of CUUUGU, the “normalized RNA/DNA level with ligand (log10)” value (hypoxanthine [1]) is reported as 1.93 ± 0.021 and the “normalized RNA/DNA level without ligand (log10)” value (hypoxanthine [2]) is reported as 1.975 ± 0.013.

For CUUUGG, the “normalized RNA/DNA level with ligand (log10)” value (hypoxanthine [1]) was 1.88 ± 0.032 and the “normalized RNA/DNA level without ligand (log10)” value (hypoxanthine [2]) was 1.58 ± 0.043.

With CUUUGA the “normalized RNA/DNA level with ligand (log10)” value (hypoxanthine [1]) was 1.97 ± 0.035 and the “normalized RNA/DNA level without ligand (log10)” value (hypoxanthine [2]) was 1.88 ± 0.0019.

AUUGGC was tested, and the “normalized RNA/DNA level with ligand (log10)” value (hypoxanthine [1]) was 1.94 ± 0.03 and the “normalized RNA/DNA level without ligand (log10)” value (hypoxanthine [2]) was 1.836 ± 0.0094.

For AUUUCU, the “normalized RNA/DNA level with ligand (log10)” value (hypoxanthine [1]) was 1.96 ± 0.052 and the “normalized RNA/DNA level without ligand (log10)” value (hypoxanthine [2]) was 1.917 ± 0.018.

For AUUUCC, the “normalized RNA/DNA level with ligand (log10)” value (hypoxanthine [1]) was 1.9621 ± 0.0014 and the “normalized RNA/DNA level without ligand (log10)” value (hypoxanthine [2]) was 1.878 ± 0.0067.

With AUUUCA the “normalized RNA/DNA level with ligand (log10)” value (hypoxanthine [1]) was 1.87 ± 0.04 and the “normalized RNA/DNA level without ligand (log10)” value (hypoxanthine [2]) was 1.829 ± 0.017.

With AUUUCG the “normalized RNA/DNA level with ligand (log10)” value (hypoxanthine [1]) was 1.901 ± 0.0068 and the “normalized RNA/DNA level without ligand (log10)” value (hypoxanthine [2]) was 1.568 ± 0.015.

With CUUUAC the “normalized RNA/DNA level with ligand (log10)” value (hypoxanthine [1]) was 1.92 ± 0.073 and the “normalized RNA/DNA level without ligand (log10)” value (hypoxanthine [2]) was 1.81 ± 0.052.

In the case of CUUUAA, the “normalized RNA/DNA level with ligand (log10)” value (hypoxanthine [1]) is reported as 1.92 ± 0.049 and the “normalized RNA/DNA level without ligand (log10)” value (hypoxanthine [2]) is reported as 1.78 ± 0.054.

With UUUGGU the “normalized RNA/DNA level with ligand (log10)” value (hypoxanthine [1]) was 1.976 ± 0.0094 and the “normalized RNA/DNA level without ligand (log10)” value (hypoxanthine [2]) was 1.8 ± 0.027.

For UUUGGG, the “normalized RNA/DNA level with ligand (log10)” value (hypoxanthine [1]) was 1.92 ± 0.025 and the “normalized RNA/DNA level without ligand (log10)” value (hypoxanthine [2]) was 1.71 ± 0.035.

UUUGGA was tested, and the “normalized RNA/DNA level with ligand (log10)” value (hypoxanthine [1]) was 1.93 ± 0.027 and the “normalized RNA/DNA level without ligand (log10)” value (hypoxanthine [2]) was 1.67 ± 0.026.

With UUUGGC the “normalized RNA/DNA level with ligand (log10)” value (hypoxanthine [1]) was 1.99 ± 0.059 and the “normalized RNA/DNA level without ligand (log10)” value (hypoxanthine [2]) was 1.92 ± 0.053.
